Changes are numbered by the printed parent chain. In names and notes the source's numbering stands.
T1: recombinant human IL-17A/F heterodimer (human, UniProt Q16552 24-155; Q96PD4 31-163, limits assumed)
T1 construct: heterodimer of an IL-17A subunit and an IL-17F subunit; also called huIL-17A/F; rhuIL-17A/F
T1 sequence (looked up) 1: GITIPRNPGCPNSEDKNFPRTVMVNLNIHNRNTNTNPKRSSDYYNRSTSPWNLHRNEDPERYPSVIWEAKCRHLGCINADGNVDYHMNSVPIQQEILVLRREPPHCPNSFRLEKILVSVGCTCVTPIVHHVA
T1 sequence (looked up) 2: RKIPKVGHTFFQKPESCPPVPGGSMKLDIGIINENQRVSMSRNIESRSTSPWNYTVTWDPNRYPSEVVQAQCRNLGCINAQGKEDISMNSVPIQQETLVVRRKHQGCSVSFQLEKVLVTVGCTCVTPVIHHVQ

T2: recombinant human TGFβ2 (Novartis) (human, UniProt P61812 303-414)
T2 construct: also called huTGFβ2
T2 sequence (looked up): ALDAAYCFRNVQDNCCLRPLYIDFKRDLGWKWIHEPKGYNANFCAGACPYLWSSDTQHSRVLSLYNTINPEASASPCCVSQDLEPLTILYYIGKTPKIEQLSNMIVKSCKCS

T3: recombinant human IL-4 (R&D Systems Cat#204-IL/CF) (human, UniProt P05112 25-153)
T3 construct: also called huIL-4
T3 sequence (looked up): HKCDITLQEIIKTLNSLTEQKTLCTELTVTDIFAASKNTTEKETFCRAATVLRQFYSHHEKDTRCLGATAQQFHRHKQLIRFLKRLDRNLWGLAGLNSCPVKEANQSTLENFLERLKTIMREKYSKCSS

T4: recombinant human IFNγ (Roche) (human, UniProt P01579 24-166, limits assumed)
T4 construct: also called huIFNγ
T4 sequence (looked up): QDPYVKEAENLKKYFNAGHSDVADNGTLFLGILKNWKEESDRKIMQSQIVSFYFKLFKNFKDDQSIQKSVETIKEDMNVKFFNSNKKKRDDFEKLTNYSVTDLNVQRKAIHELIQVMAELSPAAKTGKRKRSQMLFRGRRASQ

T5: recombinant human IL-18 (MBL Cat# B003-5) (human, UniProt Q14116 37-193)
T5 construct: also called huIL-18
T5 sequence (looked up): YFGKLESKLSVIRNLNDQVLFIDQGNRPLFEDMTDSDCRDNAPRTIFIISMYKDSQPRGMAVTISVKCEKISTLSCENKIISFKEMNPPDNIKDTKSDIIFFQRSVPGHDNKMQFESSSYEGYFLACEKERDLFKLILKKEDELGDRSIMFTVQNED

T6: recombinant human IL-23 (R&D Systems Cat#1290-IL-010/CF) (human, UniProt Q9NPF7 20-189; P29460 23-328)
T6 construct: also called huIL-23
T6 sequence (looked up) 1: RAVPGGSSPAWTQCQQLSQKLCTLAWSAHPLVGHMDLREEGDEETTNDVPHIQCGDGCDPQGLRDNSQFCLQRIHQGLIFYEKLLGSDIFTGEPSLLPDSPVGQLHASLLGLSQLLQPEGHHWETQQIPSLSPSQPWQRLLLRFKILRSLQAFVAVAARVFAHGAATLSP
T6 sequence (looked up) 2: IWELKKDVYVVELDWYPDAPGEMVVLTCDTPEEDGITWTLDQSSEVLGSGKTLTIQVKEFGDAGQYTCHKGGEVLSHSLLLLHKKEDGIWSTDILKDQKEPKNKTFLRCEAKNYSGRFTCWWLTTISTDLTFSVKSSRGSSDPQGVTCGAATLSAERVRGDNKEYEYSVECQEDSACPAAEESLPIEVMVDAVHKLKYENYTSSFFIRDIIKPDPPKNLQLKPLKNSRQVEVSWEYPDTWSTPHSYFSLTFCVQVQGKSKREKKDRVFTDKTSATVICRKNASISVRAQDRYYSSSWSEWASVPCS

T7: recombinant human IL-17A (SEQ ID NO: 76) (human, UniProt Q16552 24-155, limits assumed)
T7 construct: homodimer; also called huIL-17A; rhuIL-17A
T7 sequence: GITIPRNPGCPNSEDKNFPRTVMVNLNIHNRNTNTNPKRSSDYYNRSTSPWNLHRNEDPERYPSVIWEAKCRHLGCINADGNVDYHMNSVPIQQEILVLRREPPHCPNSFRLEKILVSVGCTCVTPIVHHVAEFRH

T8: recombinant human IL-8 (R&D Systems Cat#208-IL-010/CF) (human, UniProt P10145 28-99)
T8 construct: also called huIL-8
T8 sequence (looked up): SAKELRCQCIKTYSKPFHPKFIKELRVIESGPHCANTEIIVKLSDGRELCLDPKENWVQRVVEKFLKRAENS

T9: recombinant human IL-3 (R&D Systems Cat#203-IL/CF) (human, UniProt P08700 20-152)
T9 construct: also called huIL-3
T9 sequence (looked up): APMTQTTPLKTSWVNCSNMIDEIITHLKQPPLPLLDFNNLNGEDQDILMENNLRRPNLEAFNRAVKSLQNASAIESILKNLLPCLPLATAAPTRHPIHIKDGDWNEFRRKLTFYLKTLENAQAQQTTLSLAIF

B1: XAB4 (antibody, human IgG1, kappa, V domains shown)
VH: EVQLVESGGDLVQPGGSLRLSCAASGFTFSSYWMSWVRQAPGKGLEWVANIKQDGSEKYYVDSVKGRFTISRDNAKNSLYLQMNSLRAEDTAVYYCARDRGSLYYWGQGTLVTVSS
VL: AIQLTQSPSSLSASVGDRVTITCRPSQGINWELAWYQQKPGKAPKLLIYDASSLEQGVPSRFSGSGSGTDFTLTISSLQPEDFATYYCQQFNSYPLTFGGGTKVEIKR
notes: also called MB435 N56Q
B2: XAB1 (antibody, human IgG1, kappa, V domains shown)
VH: B1 VH
VL: B1 VL with N30I, W31S, E32A, Q56N
notes: human IgG1/kappa monoclonal antibody; also called parental XAB1; XAB1 IgG

Assays:
[1] = target: T1, recombinant human IL-17A/F heterodimer; assay: competition ELISA: huIL-17A/F pre-incubated with antibody, binding to coated huIL-17RA
[2] = target: T2, recombinant human TGFβ2 (Novartis); assay: ELISA, coated cytokine, Ab 10 µg/ml;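 further: antibodies incubated 3 h at room temperature on the coated wells, binding detected with alkaline phosphatase-conjugated anti-IgG secondary antibodies matching the species of each test antibody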
[3] = target: T10, recombinant human EGF (Sigma Cat#E9644) (human, UniProt P01133 971-1023); assay: ELISA, coated cytokine, Ab 10 µg/ml;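 further: antibodies incubated 3 h at room temperature on the coated wells, binding detected with alkaline phosphatase-conjugated anti-IgG secondary antibodies matching the species of each test antibody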
T10 construct: also called huEGF

[4] = target: T3, recombinant human IL-4 (R&D Systems …); assay: ELISA, coated cytokine, Ab 10 µg/ml;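 further: antibodies incubated 3 h at room temperature on the coated wells, binding detected with alkaline phosphatase-conjugated anti-IgG secondary antibodies matching the species of each test antibody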
[5] = target: T1, recombinant human IL-17A/F heterodimer; assay: ELISA, coated cytokine, Ab 10 µg/ml;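 further: antibodies incubated 3 h at room temperature on the coated wells, binding detected with alkaline phosphatase-conjugated anti-IgG secondary antibodies matching the species of each test antibody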
[6] = target: T4, recombinant human IFNγ (Roche); assay: ELISA, coated cytokine, Ab 10 µg/ml
[7] = target: T5, recombinant human IL-18 (MBL Cat# …); assay: ELISA, coated cytokine, Ab 10 µg/ml
[8] = target: T6, recombinant human IL-23 (R&D Systems …); assay: ELISA, coated cytokine, Ab 10 µg/ml
[9] = target: T11, recombinant human TNFα (Novartis) (human, UniProt P01375 77-233); assay: ELISA, coated cytokine, Ab 10 µg/ml
T11 construct: also called huTNFα

[10] = target: T12, recombinant human IL-6 (R&D Systems Cat#206-IL-1010/CF) (human, UniProt P05231 30-212); assay: ELISA, coated cytokine, Ab 10 µg/ml
T12 construct: also called huIL-6

[11] = target: T7, recombinant human IL-17A (SEQ ID NO: 76); assay: ELISA, coated cytokine, Ab 10 µg/ml
[12] = target: T8, recombinant human IL-8 (R&D Systems …); assay: ELISA, coated cytokine, Ab 10 µg/ml
[13] = target: T9, recombinant human IL-3 (R&D Systems …); assay: ELISA, coated cytokine, Ab 10 µg/ml

T11 sequence (P01375 77-233 limits assumed): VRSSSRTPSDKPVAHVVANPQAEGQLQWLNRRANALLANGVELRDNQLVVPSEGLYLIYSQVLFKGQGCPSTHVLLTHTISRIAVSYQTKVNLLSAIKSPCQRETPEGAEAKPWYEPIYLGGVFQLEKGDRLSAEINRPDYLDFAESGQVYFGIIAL
T10 sequence (P01133 971-1023 limits assumed): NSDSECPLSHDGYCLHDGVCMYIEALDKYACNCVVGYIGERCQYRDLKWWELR

Binder | IC50 [1] | O.D. [2] | O.D. [3] | O.D. [4] | O.D. [5] | O.D. [6] | O.D. [7] | O.D. [8] | O.D. [9] | O.D. [10] | O.D. [11] | O.D. [12] | O.D. [13]
B1 | 154 nM | 0.018 O.D. | 0.126 O.D. | 0.047 O.D. | 3.1 O.D. | 0.048 O.D. | -0.001 O.D. | -0.022 O.D. | 0.009 O.D. | -0.015 O.D. | 3.18 O.D. | 0.018 O.D. | 0.167 O.D.
B2 | 301 nM | 0.146 O.D. | 0.062 O.D. | 0.057 O.D. | 2.64 O.D. | 0.059 O.D. | -0.086 O.D. | 0.085 O.D. | 0.289 O.D. | -0.044 O.D. | 2.75 O.D. | 0.058 O.D. | -0.049 O.D.

Reference: patent publication US20180194839A1 (Novartis, published 2018)
